Two molecules from paper PMC3507513 (Molecular cell, 2010) can be followed below.

Data set [1] has as its target T1, HET-S(1–227) (Podospora anserina), B2ACC7.
T1 chain: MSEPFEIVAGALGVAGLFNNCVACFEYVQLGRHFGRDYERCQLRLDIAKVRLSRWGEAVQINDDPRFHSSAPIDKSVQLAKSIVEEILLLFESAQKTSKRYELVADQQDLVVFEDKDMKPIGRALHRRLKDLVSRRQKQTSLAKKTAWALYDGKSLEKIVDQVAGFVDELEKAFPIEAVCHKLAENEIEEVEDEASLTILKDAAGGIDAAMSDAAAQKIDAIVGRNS
The experiment in a line: […]. The conditions noted are these: remark: other sources report otherwise.

Data set [2] has as its target T1, HET-S(1–227) (Podospora anserina), …. Put plainly: NMR titration. The conditions noted are these: remark: other sources report otherwise.
Data set [3] concerns the molecule itself. The experiment in a line: NMR titration.

B1: HET-S(1–227), B2ACC7 1-227 (domain or fragment)
chain: MSEPFEIVAGALGVAGLFNNCVACFEYVQLGRHFGRDYERCQLRLDIAKVRLSRWGEAVQINDDPRFHSSAPIDKSVQLAKSIVEEILLLFESAQKTSKRYELVADQQDLVVFEDKDMKPIGRALHRRLKDLVSRRQKQTSLAKKTAWALYDGKSLEKIVDQVAGFVDELEKAFPIEAVCHKLAENEIEEVEDEASLTILKDAAGGIDAAMSDAAAQKIDAIVGRNS
Broadly, the stoichiometry N is a count of units in the complex or per binding partner. Usually Kd stands for the free concentration of one partner at which half of the binding sites on the other are occupied at equilibrium, for simple one-to-one binding. On to B1, for which the stoichiometry N in data set [1] stood at 2. In data set [2], this molecule showed a Kd of 78 µM.

B2: HET-s(1–227) (domain or fragment, Podospora anserina, UniProt Q03689 1-227, looked up)
chain: MSEPFGIVAGALNVAGLFNNCVDCFEYVQLGRPFGRDYERCQLRLDIAKARLSRWGEAVKINDDPRFHSDAPTDKSVQLAKSIVEEILLLFESAQKTSKRYELVADQQDLVVFEDKDMKPIGRALHRRLNDLVSRRQKQTSLAKKTAWALYDGKSLEKIVDQVARFVDELEKAFPIEAVCHKLAEIEIEEVEDEASLTILKDAAGGIDAAMSDAAAQKIDAIVGRNS
Take B2: binding in data set [3] was characterised by a dissociation constant (Kd) of 320 ± 37 µM.
